Source: the supplement of paper PMC7125110
± gives the standard error. This sample holds only a part of the variants without activity.

B1: glmS ribozyme (parent)
chain: AUAAAAGCGCCAGAACUACAGAAAUGUAGUUGACGAGGAGGAGGUUUAUCGAAUUUUCGGCGGAUGCCUCCAAA

Variants of: B1
Experiment: self-cleavage kobs at 2500 uM GlcN6P; higher = faster cleavage; RNA array
Conditions: with glucosamine-6-phosphate
How it was run: (§1)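 Ribozyme variants carrying barcodes were transcribed in situ on sequenced MiSeq chips by E. coli RNA polymerase and tracked at 37 °C with a hybridised Cy3 probe. They were exposed to 40 μM to 10 mM glucosamine-6-phosphate in HEPES/KCl/Mg(OAc)2 buffer. kobs came from exponential decay fits of normalised per-tile medians, and kcat and KM from weighted Michaelis–Menten fits.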

| Variant | self-cleavage kobs at 2500 uM GlcN6P |
| --- | --- |
| AUAAAAGCGCCAGAUCUACAGAAAUGUAGUAGACGAGGAGGAGGUUUAUCGAAUUUUCGGCGGAUGCCUACAAA [A15U U31A C70A] | 6.54e-05 ± 2.7e-05 s⁻¹ |
| AUAAAAGCGCCAGAAAUACAGAAAUGUAGUUGACGAGGUGGAGGUUUAUCGAAUUUUCGGCGGAUGCCUCAAAA [C16A A39U C71A] | 6.01e-05 ± 1.6e-05 s⁻¹ |
| AUAAAAGCGCCAGAUCUACAGAAAUGUAGUUGACGAGGAGGAGGUUUAUCGUAUUUUCGGCGGAUGGCUCCAAA [A15U A52U C67G] | 0.000122 ± 3.6e-05 s⁻¹ |
| AUAAAAGCGCCAGAUCUACAGAAAUGUAGUUGACGAGGAGGAGGUUUAUGGAAUUUUCGGCGGAUGCCUACAAA [A15U C50G C70A] | 0.000427 ± 0.00013 s⁻¹ |
| AUAAAAGCGCCAGACCUACAGAAAUGUAGUUGACGAGGAGGAGGUUUAUCGAAUUUUCGACUGAUGCCUCCAAA [A15C G60A G62U] | < 1e-05 s⁻¹ |
| AUAAAAGCGCCAGAUCUACAGAAAUGUAGGUGACGAGGAGGAGGUUUAUCGAAUUUUUGGCGGAUGCCUCCAAA [A15U U30G C58U] | 2.92e-05 ± 1.5e-05 s⁻¹ |
| AUAAAAGCGCCAGAUCUACAGAAAUGUAGUUGACGAGGAGGAGGUUUAUCGAAUUUUGGGCGGAUGCUUCCAAA [A15U C58G C68U] | 6.36e-05 ± 2.9e-05 s⁻¹ |
| AUAAAAGCGCCAGAUCUACAGAAAUGUAGUUGACGAGGAGGAGGUUUAUCGAAUUUUCGGUUGAUGCCUCCAAA [A15U C61U G62U] | < 1e-05 s⁻¹ |
| AUAAAAGCGCCAGAUCUACAGAAAUGUAGUUGCCGAGGAGGAGGGUUAUCUAAUGUUCGGCGGAUGCCUCCAAA [A15U A33C U45G G51U U55G] | < 1e-05 s⁻¹ |
| AUAAAAGCGCCAGAUCUACAGAAAUGUAGUUGACGAGGAGGAGGUUUAUCGAAUGUUCGGCGGUUGCCUCUAAA [A15U U55G A64U C71U] | < 1e-05 s⁻¹ |
| AUAAAAGCGCCAGAUCUACAGAAAUGUAGUUGACGAGGAGAAGGUUUAUGGAAUUUUCGGCGGAUGCCUCUAAA [A15U G41A C50G C71U] | < 1e-05 s⁻¹ |
| AUAAAAGCGCCAGACCUACAGAAAUGUAGUUGACGAGAAGGAGGUUUAUCGAAUUUUCGGCGGAUGUCUCCAAA [A15C G38A C67U] | < 1e-05 s⁻¹ |
| AUAAAAGCGCCAGAGCUACAGAAAUGUAGUUGACGAGGAGGAGGUUUAUCGAAUUUUCUGCGUAUGCCUCCAAA [A15G G59U G63U] | < 1e-05 s⁻¹ |
| AUAAAAGCGCCAGACCUACAGAAAUGUAGUUGACGAGGAGUAGGUUUAUCGAAUUUCCGGCGGUUGCCUCCAAA [A15C G41U U57C A64U] | < 1e-05 s⁻¹ |
| AUAAAAGCGCCAGAUCUACAGAAAUGUAUUUGACGAGGAGGAGGUUUAUCGAAUUUUCGGUGGAUGCCUCCAAA [A15U G29U C61U] | < 1e-05 s⁻¹ |
| AUAAAAGCGCCAGAGCUACAGAAAUGUAGUUGACGGGGAGGAGUUUUAUCGAAUUUUCGCCGGAUGCCUCCAAA [A15G A36G G44U G60C] | < 1e-05 s⁻¹ |
| AUAAAAGCGCCAGAAAUACAGAAAUGUAGUUGACGAGGAUGAGGUUUAUCGAAUUUACGGCGGAUGUCUCCAAA [C16A G40U U57A C67U] | < 1e-05 s⁻¹ |
| AUAAAAGCGCCAGAGCUACAGAAAUGUAGUUGACGAGGAGGAGCUUUAUCGAAUUUUCGGCGGAUGCCUCCAAA [A15G G44C] | 0.00014 ± 4.2e-05 s⁻¹ |

| Variant | self-cleavage kobs at 2500 uM GlcN6P |
| --- | --- |
| AUAAAAGCGCCAGACCUACAGAAAUGUAGUUGACGAGGAGGAGGUUGAUCGAAUUUUCGGCGGAUGCGUCCAAA [A15C U47G C68G] | 5.59e-05 ± 1.6e-05 s⁻¹ |
| AUAAAAGCGCCAGAGCUACAGAAAUGUAGUUGACGAGGAGGAGGUUUAUCGAAUUUUUGGCGGAUGCCUUCAAA [A15G C58U C70U] | 3.63e-05 ± 1.4e-05 s⁻¹ |
| AUAAAAGCGCCAGAGCUACAGAAAUGUAGUUCACGAGGAGGAGGUUUAUCGAGUUUUCGGCGGAUGCCUCCAAA [A15G G32C A53G] | 4.37e-05 ± 1.3e-05 s⁻¹ |
| AUAAAAGCGCCAGAGCUACAGAAAUGUAGUUGACGAGGCGGAGGAUUAUCGAAUUCUCGGCGGAUGCCUCCAAA [A15G A39C U45A U56C] | 0.000239 ± 5.6e-05 s⁻¹ |
| AUAAAAGCGCCAGAUCUACAGAAAUGUAGUUGACGAGGAUGAGGUUUAACGAAUUUUCGUCGGAUGCCUCCAAA [A15U G40U U49A G60U] | < 1e-05 s⁻¹ |
| AUAAAAGCGCCAGAGCUACAGAAAUGUAGUUGACGAGUAGGAGGUUUAUCGAAUUUUCGACGGAUGCCUCCAAA [A15G G38U G60A] | < 1e-05 s⁻¹ |
| AUAAAAGCGCCAGACCUACAGAAAUGUAGUGGACGAGGAGGAGGUUUAUCGACUUUUCGGCGGAUGCCUCCAAA [A15C U31G A53C] | 0.000196 ± 3.5e-05 s⁻¹ |
| AUAAAAGCGCCAGAAAUACAGAAAUGUAGUUGACGGGGAGGAGGUUUAUCGAAUUUUCGGCGGAUGGCUCCAAA [C16A A36G C67G] | < 1e-05 s⁻¹ |
| AUAAAAGCGCCAGAGCUACAGAAAUGUAGUUGACGAGGAGGAGGUUUAUCGAAUUUUCCUCGGAUGCCUCCAAA [A15G G59C G60U] | < 1e-05 s⁻¹ |
| AUAAAAGCGCCAGAUCUACAGAAAUGUAGUUGACGAGGAGGAGGUUUAUCCAAUUUUCGGCGGAUGCCUCUAAA [A15U G51C C71U] | < 1e-05 s⁻¹ |
| AUAAAAGCGCCAGACCUACAGAAAUGUAGUUGACGAGGAGGAGGUUUAUCGAAUUUUCGGCGGAUGCCACCAAA [A15C U69A] | 4.7e-05 ± 1.5e-05 s⁻¹ |
| AUAAAAGCGCCAGAAAUACAGAAAUGUAGUUGACGAGGAUGAGGUUUAUCGAACUUUCGGCGGAUGCCUCUAAA [C16A G40U U54C C71U] | 8.78e-05 ± 1.5e-05 s⁻¹ |
| AUAAAAGCGCCAGAGCUACAGAAAUGUAGUUGACGAGGUGGAGGUUUAUCGAAUUUUCGGCGGCUGCCUCCAAA [A15G A39U A64C] | 0.000106 ± 2.7e-05 s⁻¹ |
| AUAAAAGCGCCAGAGCUACAGAAAUGUAGUUGACCAGGAGGAGGUUUAUCGAAUUUUCGGCGGGUGCCUCCAAA [A15G G35C A64G] | < 1e-05 s⁻¹ |
| AUAAAAGCGCCAGAAAUACAGAAAUGUAGUUGACGUGGAGGAGGUUUAUCGAAUUUUCGGCGGAUGCGUCCAAA [C16A A36U C68G] | 0.000692 ± 0.0002 s⁻¹ |
| AUAAAAGCGCCAGAUCUACAGAAAUGUAAUUGACUAAGAGGAGGUUUAUCGAAAUUUCGGCGGAUGCCUCCAAA [A15U G29A G35U G37A U54A] | < 1e-05 s⁻¹ |
| AUAAAAGCGCCAGAUCUACAGAAAUGUAGCCGACGAGGAUGAGGUUUAUCGAAUUUUCGGCGGUUACCUCCAAA [A15U U30C U31C G40U A64U G66A] | < 1e-05 s⁻¹ |

Variants of: B1
Experiment: self-cleavage kobs at 10000 uM GlcN6P; higher = faster cleavage; RNA array
Conditions: with glucosamine-6-phosphate
How it was run: as §1

| Variant | self-cleavage kobs at 10000 uM GlcN6P |
| --- | --- |
| AUAAAAGCGCCAGAAAUACAGAAAUGUAGUUGACGAGGAUGAGGUUUAUCGAAUUUACGGCGGAUGUCUCCAAA [C16A G40U U57A C67U] | < 1e-05 s⁻¹ |
| AUAAAAGCGCCAGAGCUACAGAAAUGUAGUUGACGAGGAGGAGCUUUAUCGAAUUUUCGGCGGAUGCCUCCAAA [A15G G44C] | 0.000166 ± 3.2e-05 s⁻¹ |
